Measured values: patent US20210147504A1

Target: rat ANP receptor (NPR-A) (rat) (UniProt P18910)
Experiment: cell-based or functional assay

Chain of rat ANP receptor (NPR-A) (rat) (P18910 29-1057): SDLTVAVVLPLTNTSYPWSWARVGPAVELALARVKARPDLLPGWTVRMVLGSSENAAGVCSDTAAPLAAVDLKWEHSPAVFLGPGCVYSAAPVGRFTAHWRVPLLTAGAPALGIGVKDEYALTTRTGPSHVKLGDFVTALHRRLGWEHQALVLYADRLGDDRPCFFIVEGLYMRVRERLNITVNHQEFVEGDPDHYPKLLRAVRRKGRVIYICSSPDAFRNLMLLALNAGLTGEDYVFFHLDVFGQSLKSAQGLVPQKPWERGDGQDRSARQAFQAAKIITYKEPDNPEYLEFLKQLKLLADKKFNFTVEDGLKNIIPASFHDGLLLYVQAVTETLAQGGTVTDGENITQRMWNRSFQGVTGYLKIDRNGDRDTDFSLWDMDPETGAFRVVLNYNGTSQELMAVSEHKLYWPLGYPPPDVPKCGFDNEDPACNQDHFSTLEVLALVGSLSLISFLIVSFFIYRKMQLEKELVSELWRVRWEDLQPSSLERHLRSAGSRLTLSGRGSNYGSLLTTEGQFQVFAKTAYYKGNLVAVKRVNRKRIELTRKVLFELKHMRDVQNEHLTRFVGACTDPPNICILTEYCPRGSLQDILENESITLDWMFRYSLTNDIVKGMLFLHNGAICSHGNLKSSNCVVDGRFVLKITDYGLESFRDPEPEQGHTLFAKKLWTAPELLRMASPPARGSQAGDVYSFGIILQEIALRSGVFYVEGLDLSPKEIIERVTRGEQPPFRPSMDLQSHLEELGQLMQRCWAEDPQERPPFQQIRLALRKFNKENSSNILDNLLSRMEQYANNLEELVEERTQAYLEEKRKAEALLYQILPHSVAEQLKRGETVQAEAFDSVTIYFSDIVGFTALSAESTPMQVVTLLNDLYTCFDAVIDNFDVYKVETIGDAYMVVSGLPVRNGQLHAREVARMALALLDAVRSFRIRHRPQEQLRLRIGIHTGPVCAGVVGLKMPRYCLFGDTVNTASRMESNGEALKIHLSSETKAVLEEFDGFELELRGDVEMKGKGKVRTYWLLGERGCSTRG

EC50, fluorescence signal of rat NPR-A cGMP reporter CHO cell line (GCaMP6/CNGA2): 2.9 nM
Substance: BNP (Bachem, H-5968) (peptide)
